Here are results for one molecule from US20060258000A1, “Use of steady-state oxygen gradients to modulate animal cell functions” (priority 2003, published 2006).

Protocol for CYP2B: Primary rat hepatocytes from 6-well plates or chamber slides were lysed and scraped in SDS buffered (10 mM Tris/HCl (ph 7.4), 0.1% SDS). Samples were added to microcentrifuge tubes with 5 μl of PMSF, homogenized with a pestle, and centrifuged at 16,200 g for 5 minutes. Total protein content in the supernatant was determined using the DC protein assay (Bio-Rad, Hercules, Calif.) and used to normalize sample loading. Samples prepared in sample buffer were loaded (10-20 μg/well) for electrophoresis on a 10% polyacrylamide gel. After overnight transfer on to a PVDF membrane, blots were incubated with a blocking buffered (20 mM Tris-Cl (pH 7.4), 500 mM NaCl, 0.1% Tween 20, and 5% (w/v) milk powder) and washed with buffer without milk powder, incubation for 1 h with primary antibody against rat PEPCK or rat CYP2B (Genset, Woburn, Mass.) was followed by washing and incubation with either anti-sheep (PEPCK) or anti-goat (CYP2B) HRP-conjugated secondary antibody for 45 minutes. After washing, the Pierce SuperSignal chemiluminescence reagent was used for detection. All electrophoresis gels were run with molecular mass markers to verify PEPCK bands (67 kDa) or CYP2B1/2 bands (56 kDa). Optical density measurements were obtained using scanned blot images with 1d gelscan software (Metamorph).

B1: epidermal growth factor (protein, UniProt P01133 23-1207, looked up)
Pro-epidermal growth factor: PQHWSCPEGTLAGNGNSTCVGPAPFLIFSHGNSIFRIDTEGTNYEQLVVDAGVSVIMDFHYNEKRIYWVDLERQLLQRVFLNGSRQERVCNIEKNVSGMAINWINEEVIWSNQQEGIITVTDMKGNNSHILLSALKYPANVAVDPVERFIFWSSEVAGSLYRADLDGVGVKALLETSEKITAVSLDVLDKRLFWIQYNREGSNSLICSCDYDGGSVHISKHPTQHNLFAMSLFGDRIFYSTWKMKTIWIANKHTGKDMVRINLHSSFVPLGELKVVHPLAQPKAEDDTWEPEQKLCKLRKGNCSSTVCGQDLQSHLCMCAEGYALSRDRKYCEDVNECAFWNHGCTLGCKNTPGSYYCTCPVGFVLLPDGKRCHQLVSCPRNVSECSHDCVLTSEGPLCFCPEGSVLERDGKTCSGCSSPDNGGCSQLCVPLSPVSWECDCFPGYDLQLDEKSCAASGPQPFLLFANSQDIRHMHFDGTDYGTLLSQQMGMVYALDHDPVENKIYFAHTALKWIERANMDGSQRERLIEEGVDVPEGLAVDWIGRRFYWTDRGKSLIGRSDLNGKRSKIITKENISQPRGIAVHPMAKRLFWTDTGINPRIESSSLQGLGRLVIASSDLIWPSGITIDFLTDKLYWCDAKQSVIEMANLDGSKRRRLTQNDVGHPFAVAVFEDYVWFSDWAMPSVMRVNKRTGKDRVRLQGSMLKPSSLVVVHPLAKPGADPCLYQNGGCEHICKKRLGTAWCSCREGFMKASDGKTCLALDGHQLLAGGEVDLKNQVTPLDILSKTRVSEDNITESQHMLVAEIMVSDQDDCAPVGCSMYARCISEGEDATCQCLKGFAGDGKLCSDIDECEMGVPVCPPASSKCINTEGGYVCRCSEGYQGDGIHCLDIDECQLGEHSCGENASCTNTEGGYTCMCAGRLSEPGLICPDSTPPPHLREDDHHYSVRNSDSECPLSHDGYCLHDGVCMYIEALDKYACNCVVGYIGERCQYRDLKWWELRHAGHGQQQKVIVVAVCVVVLVMLLLLSLWGAHYYRTQKLLSKNPKNPYEESSRDVRSRRPADTEDGMSSCPQPWFVVIKEHQDLKNGGQPVAGEDGQAADGSMQPTSWRQEPQLCGMGTEQGCWIPVSSDKGSCPQVMERSFHMPSYGTQTLEGGVEKPHSLLSANPLWQQRALDPPHQMELTQ
modifications: Pro-epidermal growth factor
On to B1, for which the “Effect of EGF on DEX-induced CYP3A induction” value in the data set on CYP3A is reported as “remained uniform”. In addition, in the data set on CYP2B, the “Effect of EGF on DEX-induced CYP2B spatial distribution” value was “significant shift in CYP2B spatial distribution was noted from inlet regions to the outlet”.
